Among the data in publication PMC6607443, “Systematic identification of recognition motifs for the hub protein LC8” (Life Science Alliance, 2019) are Kd and stoichiometry N (peptide per LC8 chain) values, retold here.

For the experiment, the target named is dynein light chain LC8 (UniProt P63167). In words: ITC; peptide (500 μM) injected into 25 μM LC8 in the cell; 25°C; 50 mM sodium phosphate, 50 mM NaCl, 1 mM sodium azide, 5 mM β-mercaptoethanol, pH 7.5; single-site model; averages of two to three experiments. (In general: In ITC the heat of successive injections is recorded.)
dynein light chain LC8, sequence (P63167 whole entry): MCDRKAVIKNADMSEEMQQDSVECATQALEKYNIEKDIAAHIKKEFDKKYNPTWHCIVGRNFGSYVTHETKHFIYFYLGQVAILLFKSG

On to “HIV Tat-specific factor 1 (HTATSF1) peptide”, for which the Kd (in general, a measure of binding affinity in units of concentration) is 10 µM and the stoichiometry N (peptide per LC8 chain) came to 1.
